Values of other authors in PMC4920389.

Biological target: Glu23 (UniProt position 23, FAVDEENKIGQ)
Assay: stability
Details: native (folded) state

For “MNEI (single-chain monellin) (Dioscoreophyllum cumminsii)”, the pKa is listed as “approximately 7.5”.
